# Laboratory results published in patent US20240018242.
# How the values were obtained:
# [1] = target: FH-AGO2 (Flag-HA-tagged wild type AGO2 expressed in MCF-7 cells) (UniProt Q9UKV8)
# FH-AGO2-K726R = FH-AGO2-K726R (UniProt Q9UKV8)
# FH-AGO2-K726R, sequence (Q9UKV8 whole entry K726R): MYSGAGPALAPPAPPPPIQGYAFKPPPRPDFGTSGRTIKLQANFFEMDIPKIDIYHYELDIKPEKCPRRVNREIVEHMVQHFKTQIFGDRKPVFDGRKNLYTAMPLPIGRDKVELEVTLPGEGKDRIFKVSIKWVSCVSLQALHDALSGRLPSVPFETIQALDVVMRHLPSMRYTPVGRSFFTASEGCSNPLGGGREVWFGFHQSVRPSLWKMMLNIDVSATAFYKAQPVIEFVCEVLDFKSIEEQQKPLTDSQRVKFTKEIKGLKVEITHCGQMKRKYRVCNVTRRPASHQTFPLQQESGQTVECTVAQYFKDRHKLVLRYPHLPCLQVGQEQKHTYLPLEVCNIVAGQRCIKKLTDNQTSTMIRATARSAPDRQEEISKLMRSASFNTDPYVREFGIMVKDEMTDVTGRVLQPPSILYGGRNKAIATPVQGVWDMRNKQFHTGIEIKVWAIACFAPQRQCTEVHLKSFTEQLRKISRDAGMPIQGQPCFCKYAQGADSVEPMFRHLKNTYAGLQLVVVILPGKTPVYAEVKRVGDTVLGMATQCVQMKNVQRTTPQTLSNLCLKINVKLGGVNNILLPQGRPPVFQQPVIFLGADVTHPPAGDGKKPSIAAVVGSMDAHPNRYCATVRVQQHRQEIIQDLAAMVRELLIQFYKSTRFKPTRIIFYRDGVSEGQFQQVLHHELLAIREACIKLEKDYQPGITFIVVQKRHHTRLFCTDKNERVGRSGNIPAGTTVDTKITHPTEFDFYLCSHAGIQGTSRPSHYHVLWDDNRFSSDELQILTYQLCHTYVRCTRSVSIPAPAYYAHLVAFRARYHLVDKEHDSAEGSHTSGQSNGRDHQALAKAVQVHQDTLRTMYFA
# FH-AGO2 (Flag-HA-tagged wild type AGO2 expressed in MCF-7 cells), sequence (Q9UKV8 whole entry): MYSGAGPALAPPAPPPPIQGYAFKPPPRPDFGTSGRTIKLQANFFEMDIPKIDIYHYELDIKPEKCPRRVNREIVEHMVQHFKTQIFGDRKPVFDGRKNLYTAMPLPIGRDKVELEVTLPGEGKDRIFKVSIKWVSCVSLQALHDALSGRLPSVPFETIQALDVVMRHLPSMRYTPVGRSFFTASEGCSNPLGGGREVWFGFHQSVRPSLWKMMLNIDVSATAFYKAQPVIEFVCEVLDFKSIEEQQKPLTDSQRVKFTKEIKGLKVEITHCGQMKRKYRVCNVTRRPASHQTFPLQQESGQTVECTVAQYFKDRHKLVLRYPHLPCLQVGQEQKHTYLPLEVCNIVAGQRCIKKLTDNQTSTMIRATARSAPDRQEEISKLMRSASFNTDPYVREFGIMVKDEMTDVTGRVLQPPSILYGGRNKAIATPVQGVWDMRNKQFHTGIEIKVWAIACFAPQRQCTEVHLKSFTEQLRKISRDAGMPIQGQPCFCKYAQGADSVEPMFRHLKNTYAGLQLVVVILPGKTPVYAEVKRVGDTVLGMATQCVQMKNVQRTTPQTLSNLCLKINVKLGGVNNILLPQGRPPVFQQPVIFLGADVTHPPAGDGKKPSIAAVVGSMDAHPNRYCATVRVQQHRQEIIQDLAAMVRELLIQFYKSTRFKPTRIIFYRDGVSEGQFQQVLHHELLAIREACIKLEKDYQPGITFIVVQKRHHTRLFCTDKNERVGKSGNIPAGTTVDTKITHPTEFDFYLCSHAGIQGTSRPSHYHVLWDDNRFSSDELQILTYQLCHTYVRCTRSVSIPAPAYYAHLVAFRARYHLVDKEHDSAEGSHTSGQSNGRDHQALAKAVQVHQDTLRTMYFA
Substance,K726me1 level on FH-AGO2 in in vitro demethylation assay (immunoblot) [1],K726me1 level in in vitro demethylation assay (immunoblot) (FH-AGO2-K726R)
FH-LSD1 (Flag-HA-tagged wild type LSD1 expressed in MCF-7 cells),FH-LSD1 but not FH-LSD1-K661A decreased K726mel level on FH-AGO2,had no observable effects on FH-AGO2-K726R
FH-LSD1-K661A (catalytically compromised LSD1),FH-LSD1 but not FH-LSD1-K661A decreased K726mel level on FH-AGO2,
